Measured values reported in patent publication US20020115843A1.

Experiments:
Experiment in all cases: cell-based or functional assay
[1] = biological target: myc-His tagged DPRP-1 (expressed from pcDNA-MycHis-DPRP1) (human) (UniProt Q6V1X1)
[2] = biological target: myc-His tagged DPRP-2 (expressed from pcDNA-MycHis-DPRP2) (human) (UniProt Q86TI2)
[3] = biological target: dipeptidyl peptidase IV (DPPIV) (UniProt P27487)
Chain of dipeptidyl peptidase IV (DPPIV) (P27487 39-766 limits assumed): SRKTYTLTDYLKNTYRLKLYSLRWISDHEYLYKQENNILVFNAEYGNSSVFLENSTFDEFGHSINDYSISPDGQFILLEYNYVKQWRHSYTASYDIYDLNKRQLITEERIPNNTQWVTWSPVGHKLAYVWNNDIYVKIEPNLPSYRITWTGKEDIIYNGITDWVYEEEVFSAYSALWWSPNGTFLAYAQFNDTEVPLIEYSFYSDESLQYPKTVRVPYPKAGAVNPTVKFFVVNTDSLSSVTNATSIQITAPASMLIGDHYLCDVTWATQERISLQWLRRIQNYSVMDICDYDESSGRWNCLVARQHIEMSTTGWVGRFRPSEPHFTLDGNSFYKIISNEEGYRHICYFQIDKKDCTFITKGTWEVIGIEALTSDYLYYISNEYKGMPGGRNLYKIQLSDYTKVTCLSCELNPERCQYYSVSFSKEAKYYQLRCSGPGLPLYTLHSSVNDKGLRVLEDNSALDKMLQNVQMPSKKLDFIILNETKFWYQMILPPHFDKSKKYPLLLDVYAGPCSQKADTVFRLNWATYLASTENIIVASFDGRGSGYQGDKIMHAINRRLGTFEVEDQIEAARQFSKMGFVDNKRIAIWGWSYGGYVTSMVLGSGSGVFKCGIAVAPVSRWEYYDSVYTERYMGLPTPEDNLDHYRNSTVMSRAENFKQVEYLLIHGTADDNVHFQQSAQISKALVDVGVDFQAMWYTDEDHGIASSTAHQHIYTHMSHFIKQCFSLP

Chain of myc-His tagged DPRP-1 (expressed from pcDNA-MycHis-DPRP1) (human) (Q6V1X1 17-898): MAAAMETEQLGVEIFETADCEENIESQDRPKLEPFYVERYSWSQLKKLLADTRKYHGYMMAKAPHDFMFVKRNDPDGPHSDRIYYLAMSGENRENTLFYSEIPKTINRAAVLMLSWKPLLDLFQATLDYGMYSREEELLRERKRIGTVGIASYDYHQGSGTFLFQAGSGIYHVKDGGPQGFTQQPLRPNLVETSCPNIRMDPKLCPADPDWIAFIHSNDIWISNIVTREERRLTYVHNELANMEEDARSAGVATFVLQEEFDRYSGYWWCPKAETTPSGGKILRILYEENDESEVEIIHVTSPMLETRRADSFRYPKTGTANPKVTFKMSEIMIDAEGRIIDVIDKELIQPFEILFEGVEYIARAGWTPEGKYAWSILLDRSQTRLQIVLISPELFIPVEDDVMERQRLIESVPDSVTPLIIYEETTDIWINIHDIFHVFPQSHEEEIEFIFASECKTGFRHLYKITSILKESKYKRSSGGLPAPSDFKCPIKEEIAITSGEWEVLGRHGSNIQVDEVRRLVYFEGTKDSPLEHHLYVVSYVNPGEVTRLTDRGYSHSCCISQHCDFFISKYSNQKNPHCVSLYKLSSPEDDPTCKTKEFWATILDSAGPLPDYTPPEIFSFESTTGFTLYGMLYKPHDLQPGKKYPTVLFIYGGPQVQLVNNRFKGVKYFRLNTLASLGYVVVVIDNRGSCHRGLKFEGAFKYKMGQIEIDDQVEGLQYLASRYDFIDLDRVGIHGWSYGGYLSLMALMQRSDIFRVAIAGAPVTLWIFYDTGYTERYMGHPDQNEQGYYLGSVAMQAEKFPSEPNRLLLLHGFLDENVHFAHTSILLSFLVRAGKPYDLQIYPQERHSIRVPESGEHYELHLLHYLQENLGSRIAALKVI
Chain of myc-His tagged DPRP-2 (expressed from pcDNA-MycHis-DPRP2) (human) (Q86TI2 whole entry): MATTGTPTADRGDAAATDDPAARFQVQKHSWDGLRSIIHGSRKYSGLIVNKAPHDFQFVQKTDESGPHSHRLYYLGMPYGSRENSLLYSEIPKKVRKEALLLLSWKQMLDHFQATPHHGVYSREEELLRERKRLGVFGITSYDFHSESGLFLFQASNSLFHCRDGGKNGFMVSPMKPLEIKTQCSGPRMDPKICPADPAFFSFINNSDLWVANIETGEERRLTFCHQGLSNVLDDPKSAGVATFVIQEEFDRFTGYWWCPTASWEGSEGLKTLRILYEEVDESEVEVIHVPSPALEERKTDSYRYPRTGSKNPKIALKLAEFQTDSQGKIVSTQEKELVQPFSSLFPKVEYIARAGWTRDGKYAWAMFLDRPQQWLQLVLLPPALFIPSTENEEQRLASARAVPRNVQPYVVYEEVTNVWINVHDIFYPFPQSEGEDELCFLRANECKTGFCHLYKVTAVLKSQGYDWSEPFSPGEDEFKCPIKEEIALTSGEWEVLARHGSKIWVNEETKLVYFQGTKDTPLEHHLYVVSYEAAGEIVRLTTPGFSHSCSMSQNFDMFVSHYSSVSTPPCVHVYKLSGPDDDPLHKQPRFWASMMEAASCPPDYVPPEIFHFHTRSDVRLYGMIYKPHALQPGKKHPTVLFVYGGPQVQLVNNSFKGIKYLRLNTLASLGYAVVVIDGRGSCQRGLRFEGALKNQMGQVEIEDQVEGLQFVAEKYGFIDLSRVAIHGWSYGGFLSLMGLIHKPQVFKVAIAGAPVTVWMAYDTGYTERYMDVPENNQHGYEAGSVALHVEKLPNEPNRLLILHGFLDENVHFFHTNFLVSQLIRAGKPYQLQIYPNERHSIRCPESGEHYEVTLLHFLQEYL

Row | Residual activity (% of control), Ala-Pro-AMC cleavage, inhibitor at 50 µg/ml [1] | Residual activity (% of control), Ala-Pro-AMC cleavage, inhibitor at 50 µg/ml [2] | Residual activity (% of control), Ala-Pro-AMC cleavage, inhibitor at 50 µg/ml [3] | Residual activity (% of control), Ala-Pro-AMC cleavage, inhibitor at 2 µg/ml [1] | Residual activity (% of control), Ala-Pro-AMC cleavage, inhibitor at 2 µg/ml [2] | Residual activity (% of control), Ala-Pro-AMC cleavage, inhibitor at 2 µg/ml [3] | Substance
1 | 91.1 % of control | 90.4 % of control | 90.7 % of control | – | – | – | Leupeptin (peptide)
2 | – | – | – | 97.3 % of control | 95 % of control | 93.5 % of control | Pepstatin (peptide)
